Measurements: patent US20240270821A1, “GIP/GLP1/GCG TRI-RECEPTOR AGONISTS AND USES THEREOF” (priority 2023, published 2024)
Non-standard residues stand in square brackets, D forms with d. No end group written: not given here. αMeL = CC(C)C[C@](C)(N)C(=O)O; Aib = CC(C)(N)C(=O)O

T1: human GIP receptor (human) (UniProt P48546)
T1 sequence (looked up): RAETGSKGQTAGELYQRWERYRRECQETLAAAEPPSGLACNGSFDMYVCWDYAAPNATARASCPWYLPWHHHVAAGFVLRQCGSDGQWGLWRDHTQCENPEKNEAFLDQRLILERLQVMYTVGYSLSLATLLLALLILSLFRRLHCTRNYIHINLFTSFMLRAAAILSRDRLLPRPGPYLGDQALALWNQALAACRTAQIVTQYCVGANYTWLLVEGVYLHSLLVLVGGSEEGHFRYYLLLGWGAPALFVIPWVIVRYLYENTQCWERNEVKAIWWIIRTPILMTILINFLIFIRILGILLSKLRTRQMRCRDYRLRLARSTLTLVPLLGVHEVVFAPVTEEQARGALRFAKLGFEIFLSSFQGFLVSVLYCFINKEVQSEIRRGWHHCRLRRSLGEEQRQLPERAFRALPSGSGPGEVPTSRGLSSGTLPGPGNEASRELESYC

B1: Example 41 (peptide)
chain: YXQGTFTSDFSRXLDKKAQXAFIEYLLEGGPSSGAPPPGGS
modifications: Aib, αMeL; acylated Lys; C-terminal amide; synthetic construct; SITE 2: note = 2-Aminoisobutyric Acid; SITE 13: note = alpha-methyl-leucine; SITE 17: note = Lysine is chemically modified through conjugation of the epsilon-amino group of the Lysine side chain with (2-[2-(2-Amino-ethoxy)-ethoxy]-acetyl)-(gamma-Glu)-CO-(CH2) 18-CO2H; SITE 20: n
B2: Example 43 (peptide)
chain: YXQGTFTSDFSKXLDKKAQXAFIEYLLEXGPSSGAPPPGGS
modifications: acylated Lys; Aib, αMeL non-natural; C-terminal amide; synthetic construct; SITE 2: note = 2-Aminoisobutyric Acid; SITE 13: note = alpha-methyl-leucine; SITE 17: note = Lysine is chemically modified through conjugation of the epsilon-amino group of the Lysine side chain with (2-[2-(2-Amino-ethoxy)-ethoxy]-acetyl)-(gamma-Glu)-CO-(CH2) 18-CO2H; SITE 20: n
B3: Example 248 (peptide)
chain: YXQGTFTSDFSXXLDKKAQXAFIEYLLEXGXSSGAPPPSGE
modifications: Aib, Orn, αMeL, 4Pal; lysine acylated C18 diacid; C-terminal amide; synthetic construct; SITE 2: note = 2-Aminoisobutyric Acid; SITE 12: note = L-ornithine; SITE 13: note = alpha-methyl-leucine; SITE 17: note = Lysine is chemically modified through conjugation of the epsilon-amino group of the Lysine side chain with (2-[2-(2-Amino-ethoxy)-ethoxy]-acetyl)-(gamma-Glu)
B4: Example 42 (peptide)
chain: YXQGTFTSDFSRXLDKKAQXAFIEYLLEXGPSSGAPPPGGS
modifications: Aib, αMeL; acylated Lys; C-terminal amide; synthetic construct; SITE 2: note = 2-Aminoisobutyric Acid; SITE 13: note = alpha-methyl-leucine; SITE 17: note = Lysine is chemically modified through conjugation of the epsilon-amino group of the Lysine side chain with (2-[2-(2-Amino-ethoxy)-ethoxy]-acetyl)-(gamma-Glu)-CO-(CH2) 18-CO2H; SITE 20: n
B5: Example 32 (peptide)
chain: YXQGTFTSDFSKXLDKKAQXAFIEYLLAGGPSSGEPPPSEGX
modifications: Aib, αMeL, acylated K, C-terminal AEEA amide; synthetic construct; SITE 2: note = 2-Aminoisobutyric Acid; SITE 13: note = alpha-methyl-leucine; SITE 17: note = Lysine is chemically modified through conjugation of the epsilon-amino group of the Lysine side chain with (2-[2-(2-Amino-ethoxy)-ethoxy]-acetyl)-(gamma-Glu)-CO-(CH2) 18-CO2H; SITE 20: n
B6: Example 33 (peptide)
chain: YXQGTFTSDFSKXLDKKAQXAFIEYLLAGGPSSGEPPPSGEX
modifications: not fully specified; Aib, αMeL; acylated Lys; C-terminal AEEA amide; synthetic construct; SITE 2: note = 2-Aminoisobutyric Acid; SITE 13: note = alpha-methyl-leucine; SITE 17: note = Lysine is chemically modified through conjugation of the epsilon-amino group of the Lysine side chain with (2-[2-(2-Amino-ethoxy)-ethoxy]-acetyl)-(gamma-Glu)-CO-(CH2) 18-CO2H; SITE 20: n
B7: Example 90 (peptide)
chain: YXQGTFTSDFSXXLDKKAQXAFIEYLLAGGPSSGAPPPSGSE
modifications: synthetic construct; SITE 2: note = 2-Aminoisobutyric Acid; SITE 12: note = L-ornithine; SITE 13: note = alpha-methyl-leucine; SITE 17: note = Lysine is chemically modified through conjugation of the epsilon-amino group of the Lysine side chain with (2-[2-(2-Amino-ethoxy)-ethoxy]-acetyl)-(gamma-Glu)
B8: Example 280 (peptide)
chain: YXQGTFTSDXSKXLDKKAQXAFIEYLIEXGESSGAPPPSGS
modifications: synthetic construct; SITE 2: note = 2-Aminoisobutyric Acid; SITE 10: note = 3-(4-Pyridyl)-L-alanine; SITE 13: note = alpha-methyl-leucine; SITE 17: note = Lysine is chemically modified through conjugation of the epsilon-amino group of the Lysine side chain with (2-[2-(2-Amino-ethoxy)-ethoxy]-acetyl)
B9: Example 883 (peptide)
chain: YXQGTFTSDXSQXLDKKAQXAFIEYLIAGGPSSGAPPPSGE
modifications: synthetic construct; SITE 2: note = 2-Aminoisobutyric Acid; SITE 10: note = 3-(4-Pyridyl)-L-alanine; SITE 13: note = alpha-methyl-leucine; SITE 17: note = Lysine is chemically modified through conjugation of the epsilon-amino group of the Lysine side chain with (gamma-Glu)2-CO-(CH2)16-CO2H; SITE 20:
B10: Example 285 (peptide)
chain: YXQGTFTSDXSKXLDKKAQXAFIEYLIAXGESSGAPPPSGS
modifications: synthetic construct; SITE 2: note = 2-Aminoisobutyric Acid; SITE 10: note = 3-(4-Pyridyl)-L-alanine; SITE 13: note = alpha-methyl-leucine; SITE 17: note = Lysine is chemically modified through conjugation of the epsilon-amino group of the Lysine side chain with (2-[2-(2-Amino-ethoxy)-ethoxy]-acetyl)
B11: Example 282 (peptide)
chain: YXQGTFTSDXSKXLDKKAQXAFIEYLIEXGESSGEPPPSGS
modifications: synthetic construct; SITE 2: note = 2-Aminoisobutyric Acid; SITE 10: note = 3-(4-Pyridyl)-L-alanine; SITE 13: note = alpha-methyl-leucine; SITE 17: note = Lysine is chemically modified through conjugation of the epsilon-amino group of the Lysine side chain with (2-[2-(2-Amino-ethoxy)-ethoxy]-acetyl)
B12: Example 29 (peptide)
chain: YXQGTFTSDFSXXLDKKAQXAFIEYLLAGGPSSGEPPPSEG
modifications: Aib, Orn, alpha-methyl-Leu, acylated Lys, C-terminal amide; synthetic construct; SITE 2: note = 2-Aminoisobutyric Acid; SITE 12: note = L-ornithine; SITE 13: note = alpha-methyl-leucine; SITE 17: note = Lysine is chemically modified through conjugation of the epsilon-amino group of the Lysine side chain with (2-[2-(2-Amino-ethoxy)-ethoxy]-acetyl)-(gamma-Glu)
B13: Example 74 (peptide)
chain: YXQGTFTSDFSXXLDKKAQXAFIEYLLEXGPSSGAPPPSGS
modifications: synthetic construct; SITE 2: note = 2-Aminoisobutyric Acid; SITE 12: note = L-ornithine; SITE 13: note = alpha-methyl-leucine; SITE 17: note = Lysine is chemically modified through conjugation of the epsilon-amino group of the Lysine side chain with (2-[2-(2-Amino-ethoxy)-ethoxy]-acetyl)-(gamma-Glu)
B14: Example 86 (peptide)
chain: YXQGTFTSDFSXXLDKKAQXAFIEYLLAGGPSSGAPPPSGE
modifications: synthetic construct; SITE 2: note = 2-Aminoisobutyric Acid; SITE 12: note = L-ornithine; SITE 13: note = alpha-methyl-leucine; SITE 17: note = Lysine is chemically modified through conjugation of the epsilon-amino group of the Lysine side chain with (2-[2-(2-Amino-ethoxy)-ethoxy]-acetyl)-(gamma-Glu)
B15: Example 31 (peptide)
chain: YXQGTFTSDFSKXLDKKAQXAFIEYLLAGGPSSGEPPPGEG
modifications: Lys acylated; non-natural residues; C-amide; synthetic construct; SITE 2: note = 2-Aminoisobutyric Acid; SITE 13: note = alpha-methyl-leucine; SITE 17: note = Lysine is chemically modified through conjugation of the epsilon-amino group of the Lysine side chain with (2-[2-(2-Amino-ethoxy)-ethoxy]-acetyl)-(gamma-Glu)-CO-(CH2) 18-CO2H; SITE 20: n
B16: Example 37 (peptide)
chain: YXQGTFTSDFSKXLDKKAQXAFIEWLLEGGPSSGAPPPSEG
modifications: Aib, αMeL; K acylated; C-terminal amide; synthetic construct; SITE 2: note = 2-Aminoisobutyric Acid; SITE 13: note = alpha-methyl-leucine; SITE 17: note = Lysine is chemically modified through conjugation of the epsilon-amino group of the Lysine side chain with (2-[2-(2-Amino-ethoxy)-ethoxy]-acetyl)-(gamma-Glu)-CO-(CH2) 18-CO2H; SITE 20: n
B17: Example 85 (peptide)
chain: YXQGTFTSDFSXXLDKKAQXAFIEYLLAGGPSSGAPPPSGD
modifications: synthetic construct; SITE 2: note = 2-Aminoisobutyric Acid; SITE 12: note = L-ornithine; SITE 13: note = alpha-methyl-leucine; SITE 17: note = Lysine is chemically modified through conjugation of the epsilon-amino group of the Lysine side chain with (2-[2-(2-Amino-ethoxy)-ethoxy]-acetyl)-(gamma-Glu)
B18: Example 44 (peptide)
chain: YXQGTFTSDFSKXLDKKAQXAFIEYLLEXGPSSGAPPPSSG
modifications: acylated Lys; Aib, αMeL non-natural; C-terminal amide; synthetic construct; SITE 2: note = 2-Aminoisobutyric Acid; SITE 13: note = alpha-methyl-leucine; SITE 17: note = Lysine is chemically modified through conjugation of the epsilon-amino group of the Lysine side chain with (2-[2-(2-Amino-ethoxy)-ethoxy]-acetyl)-(gamma-Glu)-CO-(CH2) 18-CO2H; SITE 20: n

Key:
Test in all cases: cell-based or functional assay
[1] = biological target: human glucagon receptor (human) (UniProt P47871)
[2] = biological target: hGLP-1R (Homo sapiens, UniProt P43220)
[3] = biological target: T1, human GIP receptor (human)
[4] = biological target: human GLP1-R (SNAP-GLP-1R expressed in HEK293 cells) (human) (UniProt P43220)
[5] = biological target: human GLP-1R (SNAP-GLP-1R expressed in HEK293 cells) (human) (UniProt P43220)
Sequence of human GLP-1R (SNAP-GLP-1R expressed in HEK293 cells) (human) (P43220 24-463): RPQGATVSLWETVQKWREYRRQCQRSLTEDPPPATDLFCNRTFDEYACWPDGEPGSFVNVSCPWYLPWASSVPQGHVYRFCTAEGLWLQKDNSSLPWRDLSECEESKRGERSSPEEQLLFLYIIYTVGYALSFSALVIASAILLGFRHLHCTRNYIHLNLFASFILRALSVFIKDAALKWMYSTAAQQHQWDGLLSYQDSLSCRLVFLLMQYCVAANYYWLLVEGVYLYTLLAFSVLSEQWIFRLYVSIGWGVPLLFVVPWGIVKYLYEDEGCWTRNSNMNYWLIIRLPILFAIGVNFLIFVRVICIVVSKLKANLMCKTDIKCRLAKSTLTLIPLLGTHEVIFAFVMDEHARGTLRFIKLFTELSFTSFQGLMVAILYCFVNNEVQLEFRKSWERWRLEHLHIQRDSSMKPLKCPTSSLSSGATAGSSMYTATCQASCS

Sequence of human glucagon receptor (human) (P47871 26-477): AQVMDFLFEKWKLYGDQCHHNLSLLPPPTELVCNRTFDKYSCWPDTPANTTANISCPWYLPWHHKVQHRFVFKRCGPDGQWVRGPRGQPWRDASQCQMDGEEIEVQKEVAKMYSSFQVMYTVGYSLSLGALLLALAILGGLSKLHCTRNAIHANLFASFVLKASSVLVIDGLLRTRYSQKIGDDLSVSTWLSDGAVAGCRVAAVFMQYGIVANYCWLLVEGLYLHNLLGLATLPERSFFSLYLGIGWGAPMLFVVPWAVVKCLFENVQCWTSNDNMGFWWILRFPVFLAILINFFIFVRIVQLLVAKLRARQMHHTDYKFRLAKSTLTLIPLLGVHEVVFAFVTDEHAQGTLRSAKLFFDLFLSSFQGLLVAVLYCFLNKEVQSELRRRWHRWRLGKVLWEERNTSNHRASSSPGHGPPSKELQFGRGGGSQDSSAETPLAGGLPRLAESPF
Sequence of hGLP-1R (P43220 24-463): as the sequence (P43220 24-463) above
Sequence of human GLP1-R (SNAP-GLP-1R expressed in HEK293 cells) (human) (P43220 24-463): as above

| Binder | Relative cAMP EC50 [1] [nM] | cAMP Rel EC50 (in the presence of 1% HSA) [1] [nM] | Relative cAMP EC50 [2] [nM] | cAMP Rel EC50 (in the presence of 1% HSA) [2] [nM] | Relative cAMP EC50 [3] [nM] | cAMP Rel EC50 (in the presence of 1% HSA) [3] [nM] | GLP1R Internalization EC50 [4] [nM] | Internalization % TOP [4] [%] | GLP1R Internalization EC50 [5] [nM] | Internalization % TOP [5] [%] |
| --- | --- | --- | --- | --- | --- | --- | --- | --- | --- | --- |
| B1 | 8.59 | 2310 | 2.2 | 711 | 0.258 | 97.9 | 83.7 | 62.3 | – | – |
| B2 | 2.71 | 850 | 1.55 | 539 | 0.101 | 29.6 | 58.2 | 68.3 | – | – |
| B3 | – | 241 | – | 438 | – | 10.6 | – | – | 67.4 | 39.5 |
| B4 | 5.83 | 1520 | 2.17 | 700 | 0.115 | 32.3 | 61.4 | 58.3 | – | – |
| B5 | 11.6 | 1440 | 2.55 | 422 | 0.28 | 66.1 | 86.1 | 64.4 | – | – |
| B6 | 7.04 | 1310 | 1.71 | 436 | 0.285 | 70.7 | 106 | 64.6 | – | – |
| B7 | – | – | – | – | – | – | 70.8 | 49.8 | – | – |
| B8 | 8.63 | 1600 | 0.95 | 171 | 0.105 | 15.6 | – | – | 39.4 | 74.9 |
| B9 | 4.02 | – | 1.05 | – | 0.0779 | – | – | – | 23.9 | 77.1 |
| B10 | 2.32 | 409 | 2.87 | 365 | 0.0652 | 8.22 | – | – | 59.9 | 73.6 |
| B11 | 6.98 | 1830 | 1.09 | 217 | 0.163 | 22.1 | – | – | 28.7 | 71.9 |
| Y[Aib]QGTFTSDFSK[αMeL]LDKKAQQAFIEYLLA[Aib]GPSSGAPPPSEG-NH2 (not fully specified (residue 17)) [Example 30] | 5.22 | 969 | 3.18 | 806 | 0.247 | 72.9 | 70.4 | 72.8 | – | – |
| B12 | 11.1 | 1350 | 3.56 | 493 | 0.35 | 70.1 | 129 | 57 | – | – |
| B13 | – | – | – | – | – | – | 72.7 | 53.3 | – | – |
| B14 | – | – | – | – | – | – | 57.8 | 52.5 | – | – |
| B15 | 8.42 | 1750 | 2.16 | 737 | 0.249 | 63.6 | 91.9 | 67.4 | – | – |
| B16 | 6.83 | 1870 | 1.66 | 514 | 0.207 | 56.4 | 51.6 | 68.3 | – | – |
| B17 | – | – | – | – | – | – | 326 | 48.3 | – | – |
| B18 | 2.46 | 1050 | 1.66 | 591 | 0.116 | 35.9 | 51.5 | 65 | – | – |
